Experimental data as given in article PMC8795117.

How the values were obtained:
[1] = biological target: BmdB (Thermoactinomyces vulgaris F-5595)
[2] = biological target: BmdB (Thermoactinomyces vulgaris F-5595); test: SEC; full-length BmdB and BmdC at 1–8 μM mixed (increasing BmdC, fixed BmdB), Superdex200 Increase 10/300, 50 mM Tris-HCl pH 7.5, 200 mM NaCl, 1 mM DTT
[3] = biological target: BmdC (Thermoactinomyces vulgaris F-5595); test: SEC; size-exclusion chromatography of BmdC alone (Supplementary Fig. 2e)

Row | decrease in oxidation to bacillamide D in peptide synthesis assays [1] [%] | stoichiometry N (BmdB molecules per BmdC dimer) [2] | stoichiometry N [3] | Substance
1 | 50 | – | – | BmdC_D225R (enzyme)
2 | – | 2 | 2 | BmdC (enzyme)
